Assay results: article PMC9526445

Molecular target: SpPks1 (sea urchin polyketide synthase, Strongylocentrotus purpuratus) (Strongylocentrotus purpuratus)
Test: SEC

- stoichiometry N: 2
Substance: SpPks1 (sea urchin polyketide synthase, Strongylocentrotus purpuratus) (enzyme)
